Source: publication PMC12434308 (Nature chemical biology, 2021)
“And” between values parts separate entries of the source, which are not always exact repeats. Equal entries are not always repeated.

Target: SARS-CoV-2 S protein (SARS-CoV-2) (UniProt P0DTC2)
Test: native MS

Substance: SARS-CoV-2 S protein (from UniProt P0DTC2) (natural protein)
- stoichiometry N: 2 and 6
